# A protein production outcome set (Wang et al. 2014)
# Assay: label from the status in PepcDB records
row,Sequence,protein production
1,MHVALNQTMPDDVQGTVATIYTSSEQLQLFAFEAEVNENFEMAAAYYKERLVREPQNLDHWLDYGAFCLLTEDNIKAQECFQKALSLNQSHIHSLLLCGVLAVLLENYEQAEIFFEDATCLEPTNVVAWTLLGLYYEIQNNDIRMEMAFHEASKQLQARMLQAQVTKQKSTGVEDTEERGKRESSLGPWGITNGSATAIKVEAPAGPGAALSILDKFLEESSKLQSDSQEPILTTQTWDPSISQKPSNTFIKEIPTKKEASKCQDSSALLHPGLHYGVSQTTTIFMETIHFLMKVKAVQYVHRVLAHELLCPQGGPSCEYYLVLAQTHILKKNFAKAEEYLQQAAQMDYLNPNVWGLKGHLYFLSGNHSEAKACYERTISFVVDASEMHFIFLRLGLIYLEEKELEELTEAEDALSEANALNNYNAEVWAYLALVCLKVGRQLEAEQAYKYMIKLKLKDEALLAEIHTLQETVGFGNPSF,failed
2,MHVAVRRSNTPHPLSSLRHDIVIEPLEEERPPSRFGYDMAGKALSVQPTIDPSAKLHETRLGAYTEVGARTILHEVTMGDYSYVVNDSQITYTTIGKFCSIAAMTRINPGNHPMHRATQAHFTYRSSAYFPGESDDTEFFDWRRQHHVHIGHDVWIGHGAIVLPGRNIGTGAVIAAGAIVTKDVPAYTIVAGNPARIVRRRFSEEIAGRLARLAWWDWDHDKLREALPDFRRLGIEDFLSTYEARAHSPVSKRSAVA,failed
3,MHVISTSKKTVLSDFADLETKSEYVHQNAEPTDFQFNGQRRVFVEVDKMAGLAVMRIKEKDGKTPEIQRVRKLTIDNAFCVACAKQSLEEIAVGQSGCVKLYNFRTAQLIHRFPADPQRSTVLYMDYNNTDEYIAAVRDGGDISILGTKTKQKTNTFTIDGDSTLVRFHPSKRFHLSIASYKGAVTVYDVQGMRKIFHASEAHSAPCRDISMCTSQPALLVSVGYDCKINIFDIRRNRAQASTDRLTYSHPLSTVALSECGTYLCAGNLKGELIAYDMRSTKAPLAVRSVHDAAVTRVAFVPVPSGDNQQNGSLNSSENATGLATEAPRVERAPSDELRKSIAANLLSTQNQLTSLGYGVSTPTIVRRDSFCEFLDAQGPRAVDRMSTRLGASYRDSFDWETLNRKPQPYETANRQSLCPPVASGPSSVDNSVNSSTTESLQQTLSGPLKDRSNISGDGKLMKIAETDELCEEQSANISVASSTGGGSDKENPPPVDAEMKRRLRLLSASRNSTPHHANITPQSSNPLLKPQQLLAKSSSGLSAQMDADWRKEFSELRDFVDQRCEKVERELEYVTFSNQRLLANKMTNYMDQQVENTREIRDALALLLQGDSFMREFSRLQNENEMLKAKLKFYQEQEQTESCGE,failed
4,MHVPIRLLEWFKVEQTLVIQKKKRFGFSQGIGITLLIAIVAKYLAELPFLNIMGQLVIAILIGMVWRAAIGVPHDAIAGTNFASKKLLRFGIILLGMRLNLVDIAKAGPKVLVIAAVVITFTIFVVYGLTKVFKVEKKLGILTACGTAICGAAAVVAIAPQVKAKDDETAVGAAIIAILGTIFTLIYTLLYPVLGLSPYGYGVFSGATLHEIAHVIAAAAPGGSAAVDIAVIVKLTRVAMLVPVAILIGLWFGKSEGSKEKRSWRDLPIPWFIFGFLAMSAVHSLGIIPEVVAGYIVVIAYMLIAMAMAGLGLNVEFKTFRKLGSKAFVAGLIGSVCLSVLGYVLVYALGFM,failed
5,MHVSSGRWVYGLFLALLTALLWGILPIKLKQVLQVMDPVTVTWFRLTVSGGCLLAYLAAVGRLPRWRVLGPKGIWLVPISVCGLVGNYVLYLMGLNLLSPGTAQLVVQMGPILLLIASLFVFKERFSLGQGLGLLVLLIGFGLFFNQRLSELLTSLSDYTAGVLTILAASAVWTFYALGQKQLLSVWNSLQVMMVIYLFCALLLTPWAHPLEALEVNPLQGWLLLGCCLNTLIAYGAFAEALAHWEASRVSATLAITPLVTFVAVAWAAWLWPEYVQAEQINGLGYGGALLVVLGSALTALGPSLMAGLRARRQRIAAG,failed
6,MHVYESDVSWIDDRRTEVSVGDHRIEVDSPPEFGGPEGQLYPETLFPSVLASCLLTTFLEFKDRMGINLKSWNSHVTAELGPSPEKGFKFHRIKIHVKIGVNDEDKEKIPRAMQLAEKYCFISRAIRNNVEEIVDYEFV,not failed
7,MIAAYENSKWEPVKWENDMHCAVKIQDKNQWRRGQIIRMVTDTLVEVLLYDVGVELVVNVDCLRKLEENLKTMGRLSL,not failed
8,MIADDPHLELRLAASERDLRAAQRLRYTVFVEELGGDGDLVDHAERLERDEFDDLCDHLLLIDRRRDAAALEDVVGVYRLLPGERAAGAGRFYCDSEYDLDPLRASGRRVLELGRSCVHPDYRGGAAVFLLWSGLADYALAQRTELLFGVASFHGTDIEALAEPLSYLHAFHLAPEELRVRARSEGGQRMDLIPPERIDRRAAMLA,not failed
9,MIAGFDAKLVASADTPLTIGNVPSGMEALLLADMARAGTSVAYVMSDGQRVADLEQILGFVAPDIPVLTLPAWDCLPYDRVSPSADTSARRLAALAGLINHAKKPHPAVVLVTVNAMLQKMAPRDVIESLGFSARPGNQIRMEDIAARLERNGFDRVATVREVGEFAVRGGILDVFVPGTEEPVRLDFFGDTLESIRTFDPASQRTIAQARSLDLNPMSEVTLTPDTIGRFRKNYLSLFGAATRDDALYQAVSEGRRYAGMEHWLPLFYEQLETAFDYLKGFRIVTDHTAKEAAKERSKLVLDYYEARRASGETKGSTQGAPYKPVSPGQIYLDGKSFEAALASVNAVRLTPFNEHDSEGRPVATLDAHVGPRWARPPTEGDSEERVNVFDLAVKHIAERRAKGWKVLITGWSEGSLDRLLQVLNEHGLEKIKPVTSLKEVKKLGKGEAACAVLSLEAGFETGTLAVIGEQDILGDRMVRRSKRRKRGADFIAEVAGLDEGSLVVHAEHGIGRFVGLQTIEAAGAPRACLELHYADDAKLFLPVENIDLLSRYGSDAAEATLDKLGGGAWQMRKAKLKKRLLDMADELIRIAAARLVRHAPALIAPDGLYDEFAARFPYDETEDQLNAIEAVRDDLGAGRPMDRLICGDVGFGKTEVALRAAFLAAMNGVQVAVVVPTTLLARQHFRTFSERFRGLPIRVQQASRLVGSKELALTKKEVAEGKTDIVVGTHALLGAGISFANLGLLIIDEEQHFGVKHKERLKELKSDVHVLTLSATPIPRTLQLAMTGVRELSLITTPPVDRMAVRTFISPFDPLVIRETLMREHYRGGQSFYVCPRLADLADIHAFLQSDVPELKVAVAHGQMAAGELEDIMNAFYDGKYDVLLSTTIVESGLDVPTANTLIVHRADMFGLAQLYQLRGRVGRSKVRAFALFTLPVNKVLTTMAERRLKVLQSLDTLGAGFQLASHDLDIRGAGNLLGEEQSGHIKEVGFELYQQMLEEAVAEVKGDEEVRDSGWSPQISVGTSVMIPEDYVPDLHLRMGLYRRLGELADISEIDGFGAEMIDRFGPLPKEVQHLLKIVYIKSLCRTANVEKVDAGPKGVVVQFRNKEFPNPAALVGYIGKQGSMAKIRPDHSLFLNRDLPTPEKRLTGAAMVMTQLAELARS,failed
10,MIAHMTRDNEYKTIKDRLITLVEKEQAHRTLNQYNSDKANHDITRLSNKMRLLRRLIEHPVILNEKVSSLGNNTKRAVKGLATGLVMVAVTITAISARDYWGEITASFIIAMSFIYALREIFKDDLRDMLWRWISKGKAKWRRHYFDPTTGKQVGDKEEWLDYKKLSELPDRIQAIRKKRIVQREEQILHYRSHTEMSTSRFMSGYEETRETMMIDLRAIMRQMDKGSNHIYQLNNGQVSRESVEKRHLLNLIAKEKHHKGEPTYYRWKIVLNRSRIVDIESIPLT,failed
11,MIATIQNEKVIVSISDKGAELQSVRLKEDNTEYLWQGDSTYWGRRAPILFPIVGRLVDNTYYVDDKPYSLTQHGFARDLTFTVKEQSETKITYIVTSNEETLKKYPYEFELLVSYELDGQIVHVTYEVNNPTSKEMFFSIGAHPGFNFPLLEGESFTDYHLSFNGSERLETSVLEGPYLSNKKQLIAESTNELPLTYDLFKNDALIFENMNTDEISIRSHKHNKFVKVEFDGFPFVGVWTPGENAPFLCIEPWYGIADEVNPAKDFKEKKGIQSLQANETFTCRYSITIG,failed
12,MICFIKTLFVKIKRKKTSYVTFFLMPILTTLLALSLSFSNNNQAKIGILDKDNSQISKQFIAQLKQNKKYDIFTKIKKEHIDHYLQDKSLEAVLTIDKGFSDKVLQGKSQKLNIRSIANSEITEWVKAQTNYLLENYNIIGDVALGNEDTFNRILQKNQQLNYDVKQVTLTDRSRSKAVSSTTTGFLLILMLGSTSVIYSGILADKSSQLYHRLMLSNLSRFRYMLSYVCVGFVAFTIQIVIMLSLLKVFNISFFVPTSLLLIIFFLFSLLAIGFGLLIGAITQNSQQSSQLANLIVMPTSMLAGCLWPLSITPSYMQAIGKLLPQNWVLSAIAIFQSGGTLSQAWPYLLALMGTALALISFSSLLLKPTKL,failed
13,MICKLKLLSLPSYSSKPCNFYIHLKCSELPQKIRHPFDRNHLLSLISSPKYQEGRFRCNACGKDGDRLAYHCGDCGIDLHTVCANMPSRVTHQSHPHHQLSLTFSMPPGGPGSAAASSFQCCVCRGLGSNSWLYSCGECSGFDAHL,failed
14,MICRTIVEGTTKISVPVPPPDANFPPSAAPVFYNPEMELNRDINVAATAAFVERLLSKKDILREEIRYVDAFSASGIRGLRIAGEVGIHSTMNDWSHEAFELIKENIKINGLEEKAQATRRNANVLLHEQRFHIVDVDPFGTPSPYLDAAASSAYSMLSVTATDTAPLCGAHLNSGIRKYASVPLNTEYHSEMGLRVLLGACARELAKHEKGMLPLLSHVTRHYVRTYLEVLPGSRKADKTLKSMGFVAHCPRCGFRKPVYGLAVHIEKECPECGGLTKIAGPLWLGPYREPEFCNEVISELEAHPLNTKEKVRKIITFCRDELDIPMFYDQHVICKELGASATGIESLIEALRAGGFEASRTHFTGTSFKTDAPIAEIKKIILALSG,failed
15,MIDDKYFDVFNDKSTLQAIAVPERLERRTTVTDRIDRNGTRHEAVVPVGAAYTLLPKQFCKPAAKNYLFELDDFQKISVCSLERDESVLVSAHTSSGKTVVAEYAIAMSLRSNQRVVYTSPIKALSNQKYRELLSEFSDVGLMTGDVTINPTASCLVMTTEILRNMLYRGGEVVREIHWIIFDEIHYMRDKERGVVWEETIILLPKHVRMVFLSATIPNALEFAEWISHIQSQVVHVVYTEKRVTPLVHYFRSNKLYKIKDAKFHKSNFLSAMRSIRKRNVGPREVGEAIGDASLPVVVFSFKRKDCERFAMKLDGRYLTDEEARTVQTIFTNAIMSLRKEDREIPIIQNILPLLMRGIGIHHSGLLPIIKEVVEILFQEGLLKVLFATETFSIGLNMPAKSVVFTALKKFDGEAMRLVSSGEYIQMSGRAGRRGIDSMGIVISIISEPITYKEASRLFSASSDNLVSAFRLTYNMLLNLMRVEGLDPLYLISRSFHHFQSYKKALAEEETLHLMYRRLEDIEPNETACLYRKREEKKVERGKRLVEAFGKYLKKGRVVDLFIPRNGPSITIRNAIVSKAREKVQCMVGTEEGVYMCSFPLHYIDCVYDIRVKLDVRVFTKSFEKIAVRDELDEEIEEIEGKILSMDPEWSFDFCVLCGKSSVGCLVSCSRELIDSEAVIVQMPENTKRYGESLEAARYPSTEMKSNMDGARAFFVNETLRQRYLEKLLELNSLKEIYHMRECKKMIEVLKKLEYCDDTTVLIKGRMACEISSGDELVLTEMIFNGDFAGIPVEHFVPLLSCIVFEEWDSDSFVLSDENKLYYRLLSDSVEKVCKVLKSCGIEIDPAAYLKRFSYELMDVVRMWVCGCTFISICSKTSIFEGSIIRTFKRLEELLRQLSSAARVIGNTELENMFALGIVKIKRDIVFANSLYI,failed
16,MIDLDPRLAADTHPVTQWPLSQVRLMDDVRFPWLVLIPDRPGLVEIFDLPAEDQDKMWREVAHAAATLKTLSGAHKINIGALGNQVSQLHIHIIARRPDDGAWPGPVWGVGERQRYDQAELAEFLSGLRAQLIAPGQGIVEEGQTR,failed
17,MIDMFPMEKGEEQETYELIVRVFHKYVAPVYSENGVARFLGMLSPEGLSEMNNGKNSFVIVARDQSKIIGMISVINDSHIALFFVSPRYQGKGIGKNILDEAIKNCLNRNPELSAVTVSSSPNSKSFYEEAGFEVIGNEINEEGLRFTPMRKLLRQLEHHHHHH,failed
